Test results reported in US20220227830A1, “QD DOSING OF GIP RECEPTOR AGONIST PEPTIDE COMPOUNDS AND USES THEREOF” (Takeda Pharmaceutical Company Limited, priority 2020, published 2022).
Changes are numbered by the printed parent chain. Starred links: 1 amine or outer side, 2 acyl side, 3 side chain; linkers in the order of their positions; H or OH if unused. Non-standard residues stand in square brackets, D forms with d. Groups on a side chain read outwards from the residue. No end group written: not given here. *: point of attachment. 2OEGgE‑C16DA = O=C(O)CCCCCCCCCCCCCCC(=O)N[C@@H](CCC(=O)NCCOCCOCC(=O)NCCOCCOCC(=O)*)C(=O)O; 2OEGgE = O=C(CC[C@H](N[*:1])C(=O)O)NCCOCCOCC(=O)NCCOCCOCC(=O)[*:2]; G2E3 = linker of 2 Gly and 3 Glu (read GGEEE); C16 diacid = O=C(O)CCCCCCCCCCCCCCC(=O)*; C15 diacid = O=C(O)CCCCCCCCCCCCCC(=O)*; γGlu = O=C(O)[C@H](CCC(=O)[*:2])N[*:1]; NMeY = CN[C@@H](Cc1ccc(O)cc1)C(=O)O; AEEA = NCCOCCOCC(=O)O; Aib = CC(C)(N)C(=O)O

B1: Compound 63 (peptide)
peptide: [NMeY][Aib]EGTFISDYSIALDRKHQ[Aib]NFVNWLLAQRPSSGAPPPS-NH2
modifications: not fully specified (residue 17)
B2: Compound 53 (peptide)
peptide: [NMeY][Aib]EGTFISDYSIALDRK([G2E3-C15 diacid])AQ[Aib]NFVNWLLAQSPSSGAPPPS-OH
modifications: also: Me-Tyr methyl position not given here
B3: Compound 5 (peptide)
peptide: [NMeY][Aib]EGTFISDYSIALDRIHQK([AEEA-AEEA-γGlu-C15 diacid])NFVNWLLAQK
modifications: also: Me-Tyr methyl position not given here
B4: Compound 49 (peptide)
peptide: Y[Aib]EGTFISDYSIAK([G2E3-C15 diacid])DR[Aib]AQ[Aib]NFVNWLLAQRPSSGAPPPS-OH
modifications: not fully specified (residue 1); also: Me-Tyr methyl position not given here
B5: Compound 51 (peptide)
peptide: Y[Aib]EGTFISDYSIAKDR[Aib]AQ[Aib]NFVNWLLAQSPSSGAPPPS-OH
modifications: not fully specified (residues 1, 14); also: Me-Tyr methyl position not given here
B6: Compound 74 (peptide)
peptide: [NMeY][Aib]EGTFISDYSIALDR[Aib]K([G5gE-C15 diacid])Q[Aib]DFVNWLLAQSPSSGAPPPS-NH2
B7: Compound 65 (peptide)
peptide: [NMeY][Aib]EGTFISDYSIALDRKHQ[Aib]NFVNWLLAQSPSSGAPPPS-NH2
modifications: not fully specified (residue 17)
B8: Compound 6 (peptide)
peptide: [NMeY]GEGTFISDYSIAK([2OEGgE-C16 diacid])DRIHQ[Aib]NFVNWLLAQK
modifications: not fully specified
B9: Compound 70 (peptide)
peptide: [NMeY][Aib]EGTFISDYSIALDR[Aib]AQ[Aib]NFVNWLLAQK([OEGgEgE-C15 diacid])PSSGAPPPS-NH2
B10: Compound 3 (peptide)
peptide: [NMeY][Aib]EGTFISDYSIAKDR[Aib]AQQNFVNWLLAQK
modifications: not fully specified (residue 14)
B11: Compound 52 (peptide)
peptide: [NMeY][Aib]EGTFISDYSIALDR[Aib]AQ[Aib]NFVNWLLAQKPSSGAPPPS-OH
modifications: not fully specified (residue 30)
B12: Compound 35 (peptide)
peptide: [NMeY][Aib]EGTFISDYSIALDK[Aib]AQ[Aib]NFVNWLLAK([AEEA-AEEA-γGlu-C15 diacid])S-OH
modifications: not fully specified
B13: Compound 25 (peptide)
peptide: [NMeY][Aib]EGTFISDYSIALDR[Aib]AQ[Aib]K([AEEA-AEEA-γGlu-γGlu-C15 diacid])FVNWLLAQKG-OH
modifications: N-terminus assumed
SMILES: CC[C@H](C)[C@H](NC(=O)[C@H](CO)NC(=O)[C@H](Cc1ccc(O)cc1)NC(=O)[C@H](CC(=O)O)NC(=O)[C@H](CO)NC(=O)[C@@H](NC(=O)[C@H](Cc1ccccc1)NC(=O)[C@@H](NC(=O)CNC(=O)[C@H](CCC(=O)O)NC(=O)C(C)(C)NC(=O)[C@H](Cc1ccc(O)cc1)NC)[C@@H](C)O)[C@@H](C)CC)C(=O)N[C@@H](C)C(=O)N[C@@H](CC(C)C)C(=O)N[C@@H](CC(=O)O)C(=O)N[C@@H](CCCNC(=N)N)C(=O)NC(C)(C)C(=O)N[C@@H](C)C(=O)N[C@@H](CCC(N)=O)C(=O)NC(C)(C)C(=O)N[C@@H](CCCCNC(=O)COCCOCCNC(=O)COCCOCCNC(=O)CC[C@H](NC(=O)CC[C@H](NC(=O)CCCCCCCCCCCCCC(=O)O)C(=O)O)C(=O)O)C(=O)N[C@@H](Cc1ccccc1)C(=O)N[C@H](C(=O)N[C@@H](CC(N)=O)C(=O)N[C@@H](Cc1c[nH]c2ccccc12)C(=O)N[C@@H](CC(C)C)C(=O)N[C@@H](CC(C)C)C(=O)N[C@@H](C)C(=O)N[C@@H](CCC(N)=O)C(=O)N[C@@H](CCCCN)C(=O)NCC(=O)O)C(C)C
B14: Compound 66 (peptide)
peptide: YXEGTFISDYSIALDRXHQXDFVNWLLAQRPSSGAPPPS
modifications: not fully specified; Me-Tyr1; Aib 2,20; Km17 = Lys(gEgE-C15DA); C-term NH2
B15: Compound 68 (peptide)
peptide: B14 peptide with R30S
modifications: not fully specified; Me-Tyr1; Aib 2,20; Km17 = Lys(linker printed 'GS'-C15DA); C-term NH2
B16: Compound 67 (peptide)
peptide: B14 peptide
modifications: not fully specified; Me-Tyr1; Aib 2,20; Km17 = Lys(gE-C15DA); C-term NH2
B17: Compound 69 (peptide)
peptide: B14 peptide with R30S
modifications: not fully specified; Me-Tyr1; Aib 2,20; Km17 = Lys(gE-C15DA); C-term NH2
B18: Compound 1 (peptide)
peptide: [NMeY][Aib]EGTFISDYSIAK(2OEGgE‑C16DA)DR[Aib]AQQNFVNWLLAQK
B19: Compound 71 (peptide)
peptide: [NMeY][Aib]EGTFISDYSIALDR[Aib]K([G5gE-C15 diacid])Q[Aib]NFVNWLLAQSPSSGAPPPS-NH2
B20: Compound 2 (peptide)
peptide: [NMeY][Aib]EGTFISDYSIAKDR[Aib]AQQNFVNWLLAQK
modifications: not fully specified (residue 14, N-terminus)
B21: Compound 4 (peptide)
peptide: [NMeY][Aib]EGTFISDYSIALDRIHQK([AEEA-AEEA-γGlu-C16 diacid])NFVNWLLAQK
modifications: not fully specified
B22: Compound 73 (peptide)
peptide: [NMeY][Aib]EGTFISDYSIALDR[Aib]K([G5gE-C15 diacid])Q[Aib]DFVNWLLAQRPSSGAPPPS-NH2
B23: Compound 55 (peptide)
peptide: [NMeY][Aib]EGTFISDYSIALDR[Aib]K([G2E3-C15 diacid])Q[Aib]NFVNWLLAQSPSSGAPPPS-OH
modifications: not fully specified
B24: Compound 64 (peptide)
peptide: [NMeY][Aib]EGTFISDYSIALDRKHQ[Aib]NFVNWLLAQSPSSGAPPPS-NH2
modifications: not fully specified (residue 17)
B25: Compound 56 (peptide)
peptide: Y[Aib]EGTFISDYSI[Aib]KDR[Aib]AQ[Aib]NFVNWLLAQRPSSGAPPPS-OH
modifications: not fully specified (residues 1, 14)

Tests used:
[1] = biological target: T1, full-length human GIPR with an N-terminal FLAG tag (human, UniProt P48546 22-466); experiment: cell-based or functional assay
T1 sequence (looked up): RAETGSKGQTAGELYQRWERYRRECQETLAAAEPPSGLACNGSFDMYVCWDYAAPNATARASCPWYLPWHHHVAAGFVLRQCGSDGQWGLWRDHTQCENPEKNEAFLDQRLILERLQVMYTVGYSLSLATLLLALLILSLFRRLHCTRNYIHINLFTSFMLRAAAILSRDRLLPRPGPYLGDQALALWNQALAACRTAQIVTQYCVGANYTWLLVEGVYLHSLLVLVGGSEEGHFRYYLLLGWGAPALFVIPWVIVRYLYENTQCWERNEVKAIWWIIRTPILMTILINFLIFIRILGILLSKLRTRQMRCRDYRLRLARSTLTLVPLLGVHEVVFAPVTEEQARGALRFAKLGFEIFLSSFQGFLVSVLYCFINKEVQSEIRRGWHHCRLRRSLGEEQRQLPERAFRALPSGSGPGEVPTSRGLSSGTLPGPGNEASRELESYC

[2] = biological target: full-length human GLP-1R with an N-terminal FLAG tag (human, UniProt P43220 24-463); experiment: cell-based or functional assay

| Binder | Human GIPR cAMP, HEK293T EC50 [1] | Human GLP1R cAMP HEK293T EC50 [2] |
| --- | --- | --- |
| B1 | 0.0002 nM | 141 nM |
| B2 | 0.0001 nM | 617 nM |
| B3 | 0.0008 nM | 955 nM |
| B4 | 0.0002 nM | – |
| B5 | 0.0003 nM | 1000 nM |
| B6 | 0.0004 nM | 550 nM |
| B7 | 0.0003 nM | 129 nM |
| B8 | 0.0537 nM | 692 nM |
| B9 | 0.0009 nM | 91.2 nM |
| B10 | – | 692 nM |
| B11 | 0.0003 nM | 240 nM |
| B12 | 0.0003 nM | – |
| B13 | 0.0005 nM | – |
| B14 | 0.0004 nM | 1000 nM |
| B15 | 0.0007 nM | 200 nM |
| B16 | 0.0006 nM | 525 nM |
| B17 | 0.0004 nM | 1000 nM |
| B18 | – | 871 nM |
| B19 | 0.0006 nM | 955 nM |
| B20 | – | 1000 nM |
| B21 | 0.0005 nM | 692 nM |
| B22 | 0.0005 nM | 1000 nM |
| B23 | 0.0002 nM | 240 nM |
| B24 | 0.0005 nM | 1000 nM |
| B25 | 0.0003 nM | 263 nM |
